The target in one test is T1, mouse B7H4 (mouse, UniProt Q7TSP5 25-257).
T1 construct: whole, on cells; also called Mouse B7H4-293T
T1 sequence (looked up): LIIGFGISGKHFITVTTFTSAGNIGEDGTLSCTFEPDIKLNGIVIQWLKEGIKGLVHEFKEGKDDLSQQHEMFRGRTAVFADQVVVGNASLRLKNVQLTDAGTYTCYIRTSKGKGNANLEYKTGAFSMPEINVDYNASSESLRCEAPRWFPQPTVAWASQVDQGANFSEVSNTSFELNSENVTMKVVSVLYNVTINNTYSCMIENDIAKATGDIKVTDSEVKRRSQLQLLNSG
Description: flow cytometry on mouse B7H4-transfected HEK293T cells, PE anti-human IgG Fc secondary antibody.

A further test concerns the target T2, human VISTA (B7-H5) (human, UniProt Q9H7M9 33-311).
T2 construct: whole, on cells
T2 sequence (looked up): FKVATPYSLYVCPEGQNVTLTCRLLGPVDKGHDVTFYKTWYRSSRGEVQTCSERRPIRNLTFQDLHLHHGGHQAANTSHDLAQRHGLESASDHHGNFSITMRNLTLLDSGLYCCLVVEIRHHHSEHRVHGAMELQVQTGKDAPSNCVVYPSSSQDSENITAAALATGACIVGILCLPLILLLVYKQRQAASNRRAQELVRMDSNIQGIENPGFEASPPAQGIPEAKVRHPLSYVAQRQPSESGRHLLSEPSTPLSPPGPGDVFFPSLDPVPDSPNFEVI
Description: flow cytometry on HEK293T cells stably expressing the human protein, one concentration.

A further test concerns the target T3, human CD86 (B7-2) (human, UniProt P42081 24-329).
T3 construct: whole, on cells
T3 sequence (looked up): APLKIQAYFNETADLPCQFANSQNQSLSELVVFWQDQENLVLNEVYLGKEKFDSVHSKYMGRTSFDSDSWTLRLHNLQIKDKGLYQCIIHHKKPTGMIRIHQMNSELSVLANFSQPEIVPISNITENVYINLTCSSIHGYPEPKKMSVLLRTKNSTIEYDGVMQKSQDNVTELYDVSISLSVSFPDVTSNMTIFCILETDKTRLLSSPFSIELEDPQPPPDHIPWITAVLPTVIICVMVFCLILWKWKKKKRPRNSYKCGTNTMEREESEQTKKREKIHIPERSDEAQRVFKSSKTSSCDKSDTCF
Described as above.

The next test has as its target T4, human CD276 (B7-H3) (human, UniProt Q5ZPR3 29-534).
T4 construct: whole, on cells
T4 sequence (looked up): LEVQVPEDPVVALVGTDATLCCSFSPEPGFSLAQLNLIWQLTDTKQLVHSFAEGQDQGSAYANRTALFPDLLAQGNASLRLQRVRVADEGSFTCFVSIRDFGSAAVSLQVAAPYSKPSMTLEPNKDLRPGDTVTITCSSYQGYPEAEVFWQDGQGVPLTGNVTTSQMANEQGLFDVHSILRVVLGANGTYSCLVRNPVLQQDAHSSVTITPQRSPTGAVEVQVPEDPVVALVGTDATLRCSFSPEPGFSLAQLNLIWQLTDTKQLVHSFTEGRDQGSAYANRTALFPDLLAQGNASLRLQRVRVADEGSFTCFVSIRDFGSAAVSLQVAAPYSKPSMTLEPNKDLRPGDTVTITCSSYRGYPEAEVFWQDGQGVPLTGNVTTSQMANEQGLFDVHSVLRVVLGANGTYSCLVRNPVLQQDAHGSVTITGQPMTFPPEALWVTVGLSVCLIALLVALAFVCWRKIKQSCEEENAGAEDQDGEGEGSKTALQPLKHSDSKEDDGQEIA
The description is as above.

A further test has as its target T5, human CD80 (B7-1) (human, UniProt P33681 35-288).
T5 construct: whole, on cells
T5 sequence (looked up): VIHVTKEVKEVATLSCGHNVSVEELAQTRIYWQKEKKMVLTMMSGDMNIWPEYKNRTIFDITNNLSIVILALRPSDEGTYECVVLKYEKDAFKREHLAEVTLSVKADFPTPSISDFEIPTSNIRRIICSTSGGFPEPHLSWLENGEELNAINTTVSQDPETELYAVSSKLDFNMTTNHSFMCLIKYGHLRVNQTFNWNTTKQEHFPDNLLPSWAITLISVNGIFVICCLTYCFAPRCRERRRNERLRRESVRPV
Described as above.

The next test deals with T6, human PD-L1 (B7-H1) (human, UniProt Q9NZQ7 19-290).
T6 construct: whole, on cells; also called CD274
T6 sequence (Q9NZQ7 19-290): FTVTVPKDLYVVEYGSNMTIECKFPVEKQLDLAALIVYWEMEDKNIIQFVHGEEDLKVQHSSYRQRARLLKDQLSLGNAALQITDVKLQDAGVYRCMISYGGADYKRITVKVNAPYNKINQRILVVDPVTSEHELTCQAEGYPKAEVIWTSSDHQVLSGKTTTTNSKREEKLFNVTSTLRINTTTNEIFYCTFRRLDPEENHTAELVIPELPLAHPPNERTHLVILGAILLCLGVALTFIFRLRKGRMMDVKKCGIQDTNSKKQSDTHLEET
The description is as above.

The target of a further test is T7, human PD-L2 (B7-DC) (human, UniProt Q9BQ51 20-273).
T7 construct: whole, on cells; also called CD273
T7 sequence (looked up): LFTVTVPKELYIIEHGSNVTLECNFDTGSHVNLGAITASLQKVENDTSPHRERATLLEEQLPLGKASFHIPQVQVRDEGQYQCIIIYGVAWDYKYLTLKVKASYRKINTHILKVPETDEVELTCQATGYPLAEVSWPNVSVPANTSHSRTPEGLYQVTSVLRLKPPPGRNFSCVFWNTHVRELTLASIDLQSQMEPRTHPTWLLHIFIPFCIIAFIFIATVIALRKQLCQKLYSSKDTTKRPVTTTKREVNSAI
The test is described as above.

A further test has as its target T8, human ICOSLG (B7-H2) (human, UniProt O75144 19-302).
T8 construct: whole, on cells
T8 sequence (looked up): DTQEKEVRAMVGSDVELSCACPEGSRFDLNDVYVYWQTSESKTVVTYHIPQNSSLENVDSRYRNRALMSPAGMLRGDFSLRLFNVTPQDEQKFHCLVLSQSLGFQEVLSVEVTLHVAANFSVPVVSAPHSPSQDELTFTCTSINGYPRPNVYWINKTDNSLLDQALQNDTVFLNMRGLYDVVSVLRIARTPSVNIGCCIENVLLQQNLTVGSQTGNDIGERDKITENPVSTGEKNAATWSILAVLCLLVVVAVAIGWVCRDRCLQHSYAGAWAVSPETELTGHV
Described as above.

Another test has as its target T9, human B7H4 (human, UniProt Q7Z7D3 25-282).
T9 sequence (looked up): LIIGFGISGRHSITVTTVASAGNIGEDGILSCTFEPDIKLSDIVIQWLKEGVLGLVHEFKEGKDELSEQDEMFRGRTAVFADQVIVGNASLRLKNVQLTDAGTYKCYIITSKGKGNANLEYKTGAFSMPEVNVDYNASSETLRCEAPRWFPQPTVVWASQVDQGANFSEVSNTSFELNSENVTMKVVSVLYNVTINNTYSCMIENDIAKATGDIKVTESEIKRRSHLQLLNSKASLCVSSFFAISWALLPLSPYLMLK
Description: cell-based or functional assay.

The source of these data is US20250032630A1, “B7H4 ANTIBODY-DRUG CONJUGATE AND USE THEREOF” (Duality Biologics (Suzhou) Co., Ltd., priority 2022, published 2025).

B1: antibody-drug conjugate DB1001-X2 (antibody, DAR 5.4, V domains shown)
VH: QVQLVESGGGVVQPGRSLRLSCAASGFTFRSFGMHWVRQAPGKGLEWVAVISYDASNEYYADSVKGRFIISRDNSKDTLYLQMNSLRAGDTAVYYCAKGGALRWYFAYWGQGTLVTVSS
VL: EIVMTQSPATLSVSPGERATLSCRASQSISSNLGWYQQKPGQAPRLLIYGASTRATGIPARFSGSGSGTEFTLTISSLQSEDFAVYYCQQYRSWPPLTFGGGTKVEIKR
modifications: linker-cytotoxin X2 (payload P-III-30) coupled after TCEP reduction of the antibody; drug-to-antibody ratio (DAR) of 5.4; conjugation residues not stated
notes: also called anti-B7H4 ADC DB1001-X2
B1: the binding result with mouse B7H4 was “no binding (tested: highest concentration 100 nM)”; in the test with human VISTA (B7-H5), “no binding (tested: 100 nM or 300 nM)”; in the test with human CD86 (B7-2), “no binding (tested: 100 nM or 300 nM)”; with human CD276 (B7-H3) it was “no binding (tested: 100 nM or 300 nM)”; with human CD80 (B7-1) it was “no binding (tested: 100 nM or 300 nM)”; with human PD-L1 (B7-H1) it was “no binding (tested: 100 nM or 300 nM)”. In addition, the binding result with human PD-L2 (B7-DC) and in the test with human ICOSLG (B7-H2) was “no binding (tested: 100 nM or 300 nM)” throughout. Moreover, the “Fold over blank control, endocytosis by MDA-MB-468 cells” value with human B7H4 worked out at 2.4 fold.
